Experimental data from patent US20250382388A1 (ARGENX, published 2025).

B1: ABDEG-30GS-Alb23-SM (Fc fusion)
chain 1: DKTHTCPPCPAPELLGGPSVFLFPPKPKDTLYITREPEVTCVVVDVSHEDPEVKFNWYVDGVEVHNAKTKPREEQYNSTYRVVSVLTVLHQDWLNGKEYKCKVSNKALPAPIEKTISKAKGQPREPQVYTLPPSRDELTKNQVSLWCLVKGFYPSDIAVEWESNGQPENNYKTTPPVLDSDGSFFLYSKLTVDKSRWQQGNVFSCSVMHEALKFHYTQKSLSLSPGGGGGSGGGGSGGGGSGGGGSGGGGSGGGGSEVQLLESGGGLVQPGGSLRLSCAASGFTFRSAGMSWVRQAPGKGPEWVSSISGSGSDTLYADSVKGRFTISRDNSKNTLYLQMNSLRPEDTAVYYCTIGGSLSRSSQGTLVTVSS
chain 2: DKTHTCPPCPAPELLGGPSVFLFPPKPKDTLYITREPEVTCVVVDVSHEDPEVKFNWYVDGVEVHNAKTKPREEQYNSTYRVVSVLTVLHQDWLNGKEYKCKVSNKALPAPIEKTISKAKGQPREPQVYTLPPSRDELTKNQVSLSCAVKGFYPSDIAVEWESNGQPENNYKTTPPVLDSDGSFFLVSKLTVDKSRWQQGNVFSCSVMHEALKFHYTQKSLSLSPG
notes: also called OA-Fc-ABDEG-30GS-Alb23-F32A; OA-ABDEG-30GS-Alb23-SM
B2: ABDEG-30GS-Alb23-SM-A (Fc fusion)
chain 1: DKTHTCPPCPAPELLGGPSVFLFPPKPKDTLYITREPEVTCVVVDVSHEDPEVKFNWYVDGVEVHNAKTKPREEQYNSTYRVVSVLTVLHQDWLNGKEYKCKVSNKALPAPIEKTISKAKGQPREPQVYTLPPSRDELTKNQVSLWCLVKGFYPSDIAVEWESNGQPENNYKTTPPVLDSDGSFFLYSKLTVDKSRWQQGNVFSCSVMHEALKFHYTQKSLSLSPGGGGGSGGGGSGGGGSGGGGSGGGGSGGGGSEVQLLESGGGLVQPGGSLRLSCAASGFTFRSAGMSWVRQAPGKGPEWVSSISGSGSDTLYADSVKGRFTISRDNSKNTLYLQMNSLRPEDTAVYYCTIGGSLSRSSQGTLVTVSSA
chain 2: B1 chain 2

What was measured:
human serum albumin [1] = target: T1, human serum albumin (human, UniProt P02768 25-609); assay: SPR, pH 7.4 (ka and kd N/A)
T1 construct: Immobilised on SPR chips; also added in solution to the cell assays; also called HSA; humanSA

human serum albumin [2] = target: T1, human serum albumin; assay: SPR, Langmuir 1:1 or steady state model, pH 7.4 (ka and kd N/A)
human serum albumin [3] = target: T1, human serum albumin; assay: SPR, pH 7.4 and 5.5
human serum albumin [4] = target: T1, human serum albumin; assay: SPR, Langmuir 1:1 or steady state model, pH 5.5
human serum albumin [5] = target: T1, human serum albumin; assay: SPR, pH 5.5
[6] = target: T2, neonatal Fc receptor (FcRn), endogenous in U937 cells (UniProt P55899 24-365; P61769 21-119); assay: cell FcRn occupancy, flow cytometry, free FcRn stained with labelled anti-FcRn Fab, U937 cells, 2,500 nM HSA (SD 0.1)
T2 construct: whole, on cells; Free FcRn was stained inside fixed and permeabilised cells
T2 sequence (P55899 24-365 limits assumed, chain 1 of 2): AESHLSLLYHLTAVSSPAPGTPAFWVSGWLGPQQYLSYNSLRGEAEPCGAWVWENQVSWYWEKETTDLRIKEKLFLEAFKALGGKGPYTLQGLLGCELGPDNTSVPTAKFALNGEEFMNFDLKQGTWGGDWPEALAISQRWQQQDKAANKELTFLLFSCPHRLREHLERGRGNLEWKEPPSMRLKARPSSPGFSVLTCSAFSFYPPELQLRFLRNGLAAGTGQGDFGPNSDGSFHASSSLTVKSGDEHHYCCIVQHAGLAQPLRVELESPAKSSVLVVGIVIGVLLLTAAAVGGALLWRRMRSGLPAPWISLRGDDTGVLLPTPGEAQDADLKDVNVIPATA
T2 sequence (P61769 21-119 limits assumed, chain 2 of 2): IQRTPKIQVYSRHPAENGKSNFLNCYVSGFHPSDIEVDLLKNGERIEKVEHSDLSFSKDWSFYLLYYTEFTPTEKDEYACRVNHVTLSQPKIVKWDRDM
Procedure: (§1) Next, FcRn occupancy was tested using a cell-based FcRn occupancy assay in the presence or absence of albumin. Briefly, test articles (Fc-ABDEG-VHH molecules) were pre-incubated with HSA for 30 minutes at 37° C., pH 7.4 in FACS buffer. Cells (HEK FcRn mut or U937) were plated in a 96-well microplate. Cells were incubated with test article for two hours, shaking at 37° C., pH 7.4 in FACS buffer. Plates were then transferred immediately on ice and cells were collected by centrifugation at 4° C. Cells stained for viability in FACS buffer at pH 6 and then fixed/permeabilized in permeabilization buffer at pH 6. […] Cells were analyzed by FACS, ensuring that they are kept on ice until immediately prior to analysis.

[7] = target: T2, neonatal Fc receptor (FcRn), endogenous …; assay: cell FcRn occupancy, flow cytometry, free FcRn stained with labelled anti-FcRn Fab, U937 cells, 2,500 nM HSA (SD 0.5)
Procedure: as §1

human serum albumin [8] = target: T1, human serum albumin; assay: SPR, pH 5.5 (ka and kd N/A)

Binder | Kd (human serum albumin [1]) | Kd (human serum albumin [2]) | fold decrease in affinity against OA-Fc-ABDEG-Alb23 (human serum albumin [3]) | Kd (human serum albumin [4]) | koff (human serum albumin [4]) | kon (human serum albumin [4]) | Kd (human serum albumin [5]) | koff (human serum albumin [5]) | kon (human serum albumin [5]) | IC50 [6] | IC50 [7] | Kd (human serum albumin [8])
B1 | 49 µM | 49 µM | > 300 fold | 20.3 µM | 0.351 s⁻¹ | 17300 M⁻¹ s⁻¹ | 20.3 µM | 0.351 s⁻¹ | 17300 M⁻¹ s⁻¹ | 0.0021 µM |  | 
B2 | 31.4 µM |  |  |  |  |  |  |  |  |  | 0.0023 µM | 19 µM
